Data on eleven compounds can be found in patent US9107936B2, “Antagonists of GRASP55 for use as a medicament” (Institut National de la Sante et de la Recherche Medicale …, priority 2012, dated 2015).

Where no end group is shown, it is not given here.

In data set [1] the target is T1, GST-PDZI′ (Grasp55 residues 1 to 107) (Mus musculus, UniProt Q99JX3).
T1 construct: GST fusion proteins encompassing residues 1 to 107; made in house; host or cells: bacteria Rosetta
Description: HTRF measurement of interaction of biotinylated C-terminal peptides with GST-PDZI′. The note with it: for which Grasp55 construct's interaction with JAM-C is inhibited: NINDS library screening, PDZI′ and PDZI′+II′ recombinant GST proteins; for interaction of biotinylated peptide with PDZI′ GST construct: peptide 1.9*10^−7M. In kind it is binding, murine. The method, then:
(§1) To refine and extend the results obtained by yeast two hybrid, an Homogenous Time Resolved Fluorescence (HTRF) assay have been set-up to measure interactions of various peptides with recombinant GST proteins corresponding to different regions of Grasp55.
(§2) Briefly, the technique consisted in incubating 18 h at 4° C. the biotinylated-Cterminal peptides (SEQ ID NO: 26 to 34) at the concentration of 1.9*10^−7M with the GST-fusion protein, the terbium-coupled anti-GST antibody (8*10^−10M each) and the d2-coupled streptavidin (4*10^−8M) (both from Cisbio), in 0.1 mL of Hepes 0.05M, NaCl 0.15M BSA 0.1% pH 7.2. In some experiments, competing peptide or chemicals were added to the incubation mix at the indicated concentration. After incubation, microtiter plates (Costar #3693) were red using PolarScan Omega (BMG Labtech) equipped for HTRF measurements. Upon excitation at 320 nm, a 620 nm fluorescence emission is produced by the donor terbium that in turn excites a 665 nm light emission by a Streptavidin-d2 (acceptor) bound to the Biotinylated interacting Peptide if the latter is interacting with the donor. The […] R ratio is obtained and a Delta F is computed as: [(Rsample−RNSB)/RNSB]*100 where RNSB is the Non Specific Background signal determined in incubates where the GST-fusion protein was omitted.
(§3) Having shown that HTRF measurement of interaction is a reliable technology to identify inhibitors of interaction. A screen of a chemical compound library provided by MRCt has been initiated. The screening consisted in the same HTRF technique used in Example 7 except that compounds from the library were added in the incubation mix at the final concentration of 6.6×10^−5M. […] Since such a result could be either due to a specific inhibition of the JAM-C peptide interaction to the recombinant Grasp55 PDZ domains or to a non-specific inhibition of the FRET signal between donor and acceptor in HTRF technology, the twenty selected compounds have been further tested. Indeed, compounds could potentially interfere with the binding of the anti-GST antibody terbium-labeled to the GST of the fusion protein, the binding of Streptavidin-d2 to the biotinylated peptide or promote strong interference at 320, […] or 665 nm. Thus, the putative hits obtained were screened for non-specific inhibition. To this end, the GST-PDZI′+II′ recombinant protein was biotinylated using Sulfo-NHS Biotin according to manufacturer instructions (Pierce). This allows designing an HTRF assay in which the d2-coupled streptavidin (acceptor) and the terbium-coupled anti-GST antibody are directly bound to recombinant GST-PDZI′+II′ protein and produce DeltaF signal independently of the biotinylated peptide. The twenty selected compounds were thus tested in this assay to eliminate those giving false inhibition of the HTRF signals while inhibitors of Biotinylated peptide interaction with GST-PDZI′+II′ should not interfere in this assay.
(TR-FRET usually uses a lanthanide donor and a delayed reading to cut background.)

The next data set has as its target T2, ADAM10 (Mus musculus, UniProt O35598, DEL741-741).
T2 construct: expressed in transfected cells; host or cells: AH109 yeast strain
T2 sequence (O35598 with tags, fused parts or gaps DEL741-741): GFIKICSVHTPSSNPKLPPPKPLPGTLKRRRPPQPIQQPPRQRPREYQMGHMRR
The experiment in a line: yeast two hybrid interaction of Grasp55 constructs with ADAM10 C-terminal sequence. In kind it is binding, murine. On the set-up: key: Symbols “+++” and “−” indicates the growth of yeast on selective media as shown in the FIGURE 13; Symbols “+++” and “−” indicates the growth of yeast on selective media as shown in the FIGURE 13. From the text:
(§4) The different GRASP55 constructs were cloned into pGBT9 GW vector (Ga14 DNA-binding domain fusion vector, Trp) as well in the pACT2 GW vector (Gal4 DNA-activation domain fusion vector, Leu) using the Gateway technology (Invitrogen). Plasmids were then co-transformed in AH109 yeast strain (/MATa, trp1-901, leu2-3, 112, ura3-52, his3-200, gal4/A, /gal80/A, /LYS2::GAL1//UAS//-GAL1//TATA//-HIS3, GAL2//UAS//-GAL2//TATA//-ADE2, URA3::MEL1//UAS//-MEL1//TATA//-lacZ, MEL1/) in accordance with the previously described transformation protocol (Chien et al. 1991. Proc Natl Acad Sci USA. 88:9578-82). Following co-transformation with the two vectors containing the different constructs (as well as the empty vector to test self activation), yeasts were plated onto Synthetic Complete (SC) medium minus Leucine (−L), minus Tryptophan (−W), minus Histidine (−H) and incubated at 30° C. for 4 to 5 days. All yeast media were prepared as previously described.
(§5) In examples 2, the inventors have previously shown that interaction between Grasp55 and C-terminal part of JAM-C requires the peptidic sequence between residues 1 to 160 of Grasp55 (PDZI+II) but cannot occur with residues 1 to 79 of Grasp55 (PDZI) by yeast two hybrid and ELISA assay (FIGS. 2 and 8). In the present example, the interaction sites between JAMs or metalloproteinases involved in JAM regulation and Grasp55 have been mapped using new constructs. To this end, yeast two-hybrid and GST fusion proteins encompassing residues 1 to 107, 108 to 208, and 1 to 208 corresponding respectively to the PDZI′, PDZII′ and PDZI′+II′ constructs have been generated. The former PDZII construct (residues 80 to 160) have also been used to test interaction with the C-terminal sequences of ADAM 10 (of sequence SEQ ID NO: 41) and ADAM 17 (of sequence SEQ ID NO: 42) known to regulate JAM-A and JAM-C release (Table 1). GST fusion proteins were produced and yeast two-hybrid assay was performed as previously described in example 1.

A further data set addresses T3, JAM-C (Mus musculus, UniProt Q9D8B7).
T3 construct: amino-acids 263 to 310 of murine JAM-C; expressed in transfected cells; host or cells: AH109 yeast strain
T3 sequence (Q9D8B7 263-310): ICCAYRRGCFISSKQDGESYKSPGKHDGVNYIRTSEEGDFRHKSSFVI
Description: yeast two hybrid interaction of Grasp55 constructs with JAM-C. In kind it is binding, murine. On the set-up: key: Symbols “+++” and “−” indicates the growth of yeast on selective media as shown in the FIGURE 13; Symbols “+++” and “−” indicates the growth of yeast on selective media as shown in the FIGURE 13.
Source text: as §4, §5

A further data set concerns the target T4, JAM-C ΔPDZbm (Mus musculus, UniProt Q9D8B7).
T4 construct: amino-acids 263 to 310 of murine JAM-C; expressed in transfected cells; host or cells: AH109 yeast strain
T4 sequence (Q9D8B7 263-307 limits assumed): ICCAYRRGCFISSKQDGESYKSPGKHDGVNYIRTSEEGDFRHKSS
The experiment in a line: yeast two hybrid interaction of Grasp55 constructs with JAM-C ΔPDZbm. In kind it is binding, murine. On the set-up: key: Symbols “+++” and “−” indicates the growth of yeast on selective media as shown in the FIGURE 13; Symbols “+++” and “−” indicates the growth of yeast on selective media as shown in the FIGURE 13.
Source text: as §4, §5

The next data set deals with T5, ADAM17 (Mus musculus, UniProt Q9Z0F8, A775V/P752S).
T5 construct: expressed in transfected cells; host or cells: AH109 yeast strain
T5 sequence (Q9Z0F8 693-827 P752S/A775V): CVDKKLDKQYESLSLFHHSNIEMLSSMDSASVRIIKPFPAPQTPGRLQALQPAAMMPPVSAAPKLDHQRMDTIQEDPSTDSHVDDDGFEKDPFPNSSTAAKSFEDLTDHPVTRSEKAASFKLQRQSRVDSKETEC
Description: yeast two hybrid interaction of Grasp55 constructs with ADAM17 C-terminal sequence. On the set-up: key: Symbols “+++” and “−” indicates the growth of yeast on selective media as shown in the FIGURE 13; Symbols “+++” and “−” indicates the growth of yeast on selective media as shown in the FIGURE 13. In kind it is binding, murine.
Source text: as §4, §5

Data set [2] has as its target T6, GST-PDZI′+II′ (Grasp55 residues 1 to 208) (Mus musculus, UniProt Q99JX3).
T6 construct: and 1 to 208 corresponding respectively to the PDZI′, PDZII′ and PDZI′+II′ constructs; made in house; host or cells: bacteria Rosetta
The experiment in a line: HTRF measurement of interaction of biotinylated C-terminal peptides with GST-PDZI′+II′. In kind it is binding, murine. Conditions: for interaction of biotinylated peptide with PDZI′+II′ GST construct: peptide 1.9*10^−7M. On the procedure: as §1, §2, §3

For another data set, the system named is B16F10 cells. The experiment in a line: wound healing assay (cell migration). In kind it is cell-based, mouse. The note with it: siRNA, 48 h post-transfection, measured over 6 h; sicontrol 167±13; Mean+/−SEM. On the procedure: Transient transfections were performed on a 50% confluent monolayer of B16F10 cells with either 10 nM of siRNA or 5 μg of shRNA against luciferase used as a control or shRNA against GRASP55 in Lipofectamine RNAimax (Invitrogen). Transfection efficiency was monitored at 24 h by qRT-PCR and Western blots for the expression of GRASP55 transcript or protein. For selection of stable transfectants, cells were grown in DMEM containing 10 μg/ml of puromycine (Sigma Aldrich) starting 48 h after transfection.
For in vitro wound healing assays, 80% confluent monolayers of wild-type B16F10 cells or B16F10 cells transfected with various siRNA or shRNA were grown in both chambers of Ibidi culture inserts with defined cell free gaps. Cells were subjected to serum starvation for 24 h, before wounds were created by removing Ibidi culture inserts that define cell gaps of 400 μm. The wound healing was carried out for 8 h in complete DMEM medium and was recorded at various times after wounding. Analysis of wound closure was performed using Metamorph software and is expressed as mean speed per minute.

The mark [3] stands for this setting: competition with unlabelled JAM-C peptide.

On to `N.N.O=C([O-])C1(C(=O)[O-])CCC1.[Pt+2]` [Carboplatin, cis-Diammine(1,1-cyclobutanedicarboxylato)platinum(II)], for which the “which Grasp55 construct's interaction with JAM-C is inhibited” value in data set [1] is reported as “preferentially inhibit the interaction of JAM-C with PDZI′”.

Turning to “PDZI′ + II′: Grasp55 construct, residues 1 to 208”, the “interaction with ADAM10 (yeast growth on selective media)” value with ADAM10 is reported as “−”. The “interaction with JAM-C (yeast growth on selective media)” value with JAM-C is “+++”. In the data set with JAM-C ΔPDZbm, the “interaction with JAM-C ΔPDZbm (yeast growth on selective media)” value is reported as “−”. Besides, the “interaction with ADAM17 (yeast growth on selective media)” value with ADAM17 is given as “−”.

Consider “JAM-A: biotinylated C-terminal peptide of JAM-A (SQPSTRSEGEFKQTSSFLV; also: biotinylated)”, for which the “interaction of biotinylated peptide with PDZI′ GST construct” value in data set [1] is given as “confirmed”. Further, the “AppAff for GST-PDZI′+II′ compared with GST-PDZI′” value in data set [2] (setting [3]) was “higher AppAff”. In addition, the “apparent affinity (AppAff) compared with JAM-C” value in data set [2] (competition with unlabelled JAM-C peptide, GST-PDZI′ and GST-PDZI′+II′) is reported as “AppAff of JAM-C is equal to AppAff of JAM-A”. For the same compound, in data set [2], the “interaction of biotinylated peptide with PDZI′+II′ GST construct” value (shortened to “interaction … with PDZI′+II′ GST construct”) is “confirmed”.

Consider “PDZI′: Grasp55 construct, residues 1 to 107”, for which the “interaction with ADAM10 (yeast growth on selective media)” value with ADAM10 is “−”. The “interaction with JAM-C (yeast growth on selective media)” value in the data set with JAM-C is given as “+++”. Further, in the data set with JAM-C ΔPDZbm, the “interaction with JAM-C ΔPDZbm (yeast growth on selective media)” value is “−”. Further, the “interaction with ADAM17 (yeast growth on selective media)” value with ADAM17 is on record as “−”.

Turning to “ΔPDZbm: control biotynilated JAM-C peptide lacking the three terminal amino-acids (SEQ ID NO: 31) (NYIRTSEEGDFRHKSS; also: biotinylated)”, in data set [2], the “interaction … with PDZI′+II′ GST construct” value is “no signal over the background”.

Consider `CCN(CC)C(=S)SSC(=S)N(CC)CC` [Disulfiram, 1,1′,1″,1′″-[disulfanediylbis(carbonothioylnitrilo)]tetraethane], for which the “which Grasp55 construct's interaction with JAM-C is inhibited” value in data set [1] is given as “only with PDZI′+II′”.

Consider “PDZII′: Grasp55 construct, residues 108 to 208”, for which the “interaction with ADAM10 (yeast growth on selective media)” value in the data set with ADAM10 is on record as “−”. The “interaction with JAM-C (yeast growth on selective media)” value with JAM-C was “−”. Besides, the “interaction with JAM-C ΔPDZbm (yeast growth on selective media)” value in the data set with JAM-C ΔPDZbm was “−”. Further, the “interaction with ADAM17 (yeast growth on selective media)” value in the data set with ADAM17 is recorded as “−”.

Regarding `O=c1oc2c(O)c(O)cc3c(=O)oc4c(O)c(O)cc1c4c23` [Ellagic acid, 2,3,7,8-Tetrahydroxy-chromeno[5,4,3-cde]chromene-5,10-dione], in data set [1], the “which Grasp55 construct's interaction with JAM-C is inhibited” value is “inhibit interaction with PDZI′ and PDZI′+II′”.

In turn, “siGRASP55#01: siRNA targeting Grasp55, SEQ ID NO: 6, 5′CGUCAUGAAUGAGUCUGAATT 3′, from Ambion (chemistry not given here)” gave a mean velocity in the data set with B16F10 cells of 82 ± 4 nm/min.

The compound “siGRASP55#1: siRNA targeting Grasp55, SEQ ID NO: 7, 5′AAGUGAUCAUCACACCAAATT 3′, from Ambion (chemistry not given here)” yielded a mean velocity with B16F10 cells of 95 ± 8 nm/min.

For the compound “JAM-C: biotinylated C-terminal peptide of JAM-C (NYIRTSEEGDFRHKSSFVI; also: biotin)”, the “interaction of biotinylated peptide with PDZI′ GST construct” value in data set [1] was “confirmed”. The “AppAff for GST-PDZI′+II′ compared with GST-PDZI′” value in data set [2] (setting [3]) was “higher AppAff”. Further, in data set [2], the “interaction … with PDZI′+II′ GST construct” value is given as “confirmed”.
